# Columns and labels:
# [1] = target: T1, fibrin monomers, dimers and/or oligomers (UniProt P02671 36-629; P02675 45-491; P02679 27-437); assay: cell-based or functional assay
# T1 sequence (looked up) 1: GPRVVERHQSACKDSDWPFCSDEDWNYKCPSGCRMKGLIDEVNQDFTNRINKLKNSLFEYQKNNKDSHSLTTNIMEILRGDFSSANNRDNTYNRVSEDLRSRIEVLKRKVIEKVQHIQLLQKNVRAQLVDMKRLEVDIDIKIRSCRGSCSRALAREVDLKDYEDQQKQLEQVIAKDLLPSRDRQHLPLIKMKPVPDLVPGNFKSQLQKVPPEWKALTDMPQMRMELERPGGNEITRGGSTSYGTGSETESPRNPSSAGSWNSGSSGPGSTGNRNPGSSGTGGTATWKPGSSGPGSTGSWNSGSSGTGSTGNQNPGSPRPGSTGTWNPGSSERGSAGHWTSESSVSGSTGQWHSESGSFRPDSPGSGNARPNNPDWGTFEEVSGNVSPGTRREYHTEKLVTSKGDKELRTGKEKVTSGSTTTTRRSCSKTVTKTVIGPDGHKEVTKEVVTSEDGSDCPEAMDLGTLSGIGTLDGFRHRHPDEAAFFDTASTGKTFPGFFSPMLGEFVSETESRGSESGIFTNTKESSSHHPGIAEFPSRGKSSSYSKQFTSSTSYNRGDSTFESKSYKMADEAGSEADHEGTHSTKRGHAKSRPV
# T1 sequence (looked up) 2: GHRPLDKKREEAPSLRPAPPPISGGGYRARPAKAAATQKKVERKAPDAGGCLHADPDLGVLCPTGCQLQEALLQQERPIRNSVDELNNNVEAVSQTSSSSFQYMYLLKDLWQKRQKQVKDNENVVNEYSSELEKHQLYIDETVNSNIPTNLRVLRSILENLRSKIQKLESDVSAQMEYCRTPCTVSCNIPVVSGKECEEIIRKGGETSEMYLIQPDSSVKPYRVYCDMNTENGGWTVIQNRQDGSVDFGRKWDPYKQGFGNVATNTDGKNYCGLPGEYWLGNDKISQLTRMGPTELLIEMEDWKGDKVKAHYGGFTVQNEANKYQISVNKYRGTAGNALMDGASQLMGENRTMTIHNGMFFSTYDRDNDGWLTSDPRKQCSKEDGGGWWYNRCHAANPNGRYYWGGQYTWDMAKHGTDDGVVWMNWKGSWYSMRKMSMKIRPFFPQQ
# T1 sequence (looked up) 3: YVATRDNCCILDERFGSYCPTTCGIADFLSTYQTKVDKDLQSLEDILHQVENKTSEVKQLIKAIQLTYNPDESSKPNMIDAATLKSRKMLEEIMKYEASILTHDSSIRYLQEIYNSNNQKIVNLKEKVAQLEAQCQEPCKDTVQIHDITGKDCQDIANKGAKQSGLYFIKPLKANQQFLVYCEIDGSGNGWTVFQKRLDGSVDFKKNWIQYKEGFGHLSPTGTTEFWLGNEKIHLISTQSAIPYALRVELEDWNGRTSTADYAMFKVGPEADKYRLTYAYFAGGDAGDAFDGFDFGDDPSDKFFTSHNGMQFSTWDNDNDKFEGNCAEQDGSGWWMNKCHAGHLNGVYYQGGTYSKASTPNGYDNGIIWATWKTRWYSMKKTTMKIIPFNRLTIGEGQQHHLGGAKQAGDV
# [2] = target: T1, fibrin monomers, dimers and/or oligomers; assay: cell-based or functional assay; remark: listed apart in the source
binder,measurement,setting,value
GPRP [GPRP peptide (Gly-Pro-Arg-Pro)],"fibrin polymerization; 40 mM GPRP, molar ratio above 340:1 GPRP:fibrin",[1],> 14 days
same,"Time to clot (cessation of flow on tube inversion); GPRP 0.1 mM, 1.1-fold GPRP:fibrin, 3% fibrin, thrombin 100 IU/ml",[2],5 s
same,"Time to clot (cessation of flow on tube inversion); GPRP 0.2 mM, 2.3-fold GPRP:fibrin, 3% fibrin, thrombin 100 IU/ml",[2],7 s
same,"Time to clot (cessation of flow on tube inversion); GPRP 0.5 mM, 5.7-fold GPRP:fibrin, 3% fibrin, thrombin 100 IU/ml",[2],11 s
same,"Time to clot (cessation of flow on tube inversion); GPRP 1 mM, 11.3-fold GPRP:fibrin, 3% fibrin, thrombin 100 IU/ml",[2],13 s
same,"Time to clot (cessation of flow on tube inversion); GPRP 1.5 mM, 17-fold GPRP:fibrin, 3% fibrin, thrombin 100 IU/ml",[2],22 s
same,"Time to clot (cessation of flow on tube inversion); GPRP 2 mM, 22.7-fold GPRP:fibrin, 3% fibrin, thrombin 100 IU/ml",[2],28 s
same,"Time to clot (cessation of flow on tube inversion); GPRP 3 mM, 34-fold GPRP:fibrin, 3% fibrin, thrombin 100 IU/ml",[2],2.5 min
same,"Time to clot (cessation of flow on tube inversion); GPRP 4 mM, 45-fold GPRP:fibrin, 3% fibrin, thrombin 100 IU/ml",[2],8 min
same,"Time to clot (cessation of flow on tube inversion); GPRP 5 mM, 56.7-fold GPRP:fibrin, 3% fibrin, thrombin 100 IU/ml",[2],15 min

# Reference: patent US20150272562A1 (ETHICON, published 2015)
